Reference: US20240368233A1 (University of Washington, published 2024)

T1: LHD274 B62
T1 construct: also called LHD274 B DHR62 C
T1 single chain, LHD274 chain B fused to DHR62: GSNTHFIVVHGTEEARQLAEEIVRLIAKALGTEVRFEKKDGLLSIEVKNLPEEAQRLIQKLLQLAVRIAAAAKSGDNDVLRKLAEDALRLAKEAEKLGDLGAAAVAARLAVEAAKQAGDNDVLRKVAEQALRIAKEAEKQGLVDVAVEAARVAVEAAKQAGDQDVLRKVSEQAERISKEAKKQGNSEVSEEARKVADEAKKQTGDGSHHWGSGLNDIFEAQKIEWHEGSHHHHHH

T2: DF206
T2 construct: Bivalent connector
T2 chain: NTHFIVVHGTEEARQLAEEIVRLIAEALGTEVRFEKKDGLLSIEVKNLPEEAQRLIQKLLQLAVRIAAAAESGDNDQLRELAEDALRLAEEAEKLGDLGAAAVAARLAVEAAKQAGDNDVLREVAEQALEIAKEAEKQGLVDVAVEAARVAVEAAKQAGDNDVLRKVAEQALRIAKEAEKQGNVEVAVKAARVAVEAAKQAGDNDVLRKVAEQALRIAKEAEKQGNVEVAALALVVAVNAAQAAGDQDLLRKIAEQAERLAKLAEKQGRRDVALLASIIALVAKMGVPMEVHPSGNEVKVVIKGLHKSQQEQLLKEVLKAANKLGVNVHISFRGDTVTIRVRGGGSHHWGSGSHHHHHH

T3: DF202
T3 construct: Bivalent connector
T3 chain: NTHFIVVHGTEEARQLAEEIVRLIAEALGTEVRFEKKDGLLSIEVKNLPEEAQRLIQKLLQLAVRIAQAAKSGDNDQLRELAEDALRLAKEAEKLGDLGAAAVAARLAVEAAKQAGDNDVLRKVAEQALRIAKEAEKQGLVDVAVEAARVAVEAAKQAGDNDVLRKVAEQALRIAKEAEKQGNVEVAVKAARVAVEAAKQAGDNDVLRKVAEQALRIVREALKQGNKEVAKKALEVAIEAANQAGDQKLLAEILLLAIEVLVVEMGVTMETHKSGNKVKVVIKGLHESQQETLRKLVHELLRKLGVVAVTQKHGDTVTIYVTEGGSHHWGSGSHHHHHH

T4: DFA-1
T4 construct: Bivalent connector
T4 chain: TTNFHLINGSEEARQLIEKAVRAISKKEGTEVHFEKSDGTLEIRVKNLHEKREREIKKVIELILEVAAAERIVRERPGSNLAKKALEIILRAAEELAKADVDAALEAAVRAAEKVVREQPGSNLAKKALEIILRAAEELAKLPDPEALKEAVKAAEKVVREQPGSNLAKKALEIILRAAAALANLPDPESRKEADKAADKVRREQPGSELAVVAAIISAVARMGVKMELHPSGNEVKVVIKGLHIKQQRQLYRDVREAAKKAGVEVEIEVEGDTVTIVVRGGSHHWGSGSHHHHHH


What was measured:
[1] = target: T1, LHD274 B62; assay: SEC binding assay (Superdex 200, normalised A230) of A, B and the mixture AB
[2] = target: T2, DF206; assay: SEC of mixed components; trimer listed in Table 6
[3] = target: T3, DF202; assay: SEC of mixed components; trimer listed in Table 6
[4] = target: T4, DFA-1; assay: SEC of mixed components; trimer listed in Table 6

Binder	binding result [1]	binding result [2]	binding result [3]	binding result [4]
274A53 (designed binder, also called LHD274A DHR53 stop; LHD274A53) TTNFHLINGSEEARQLIEKAVRAISKKEGTEVHFEKSDGTLEIRVKNLHEKREREIKKVIELILEVAAAERIVRERPGSNLAKKALEIILRAAEELAKADVDAALEAAVRAAEKVVREQPGSNLAKKALEIILRAAEELAKLPDPEALKEAVKAAEKVVREQPGSELAKKALEIIERAAEELKKSPDPEAQKEAKKAEQKVREESGSHHWGSGLNDIFEAQKIEWHEGSHHHHHH	binds	binds	binds	
101B62 (designed binder, also called LHD101B62) HHHHHHGSGLNDIFEAQKIEWHEAENLYFQSGSNDEKRKRAEKALQRAQEAEKKGDVEEAVRAAQEAVRAAKESGDNDVLRKVAEQALRIAKEAEKQGNVEVAVKAARVAVEAAKQAGDNDVLRKVAEQALRIAKEALKQGNVDVAAKAAQVAEEAAKQAGDQDVLRKVKEVQIEIVLAAIELTVRKMGVTMETHRSGREVKVVIKGLHESQQEQLLEDVLRIAELAGVRVRIRFKGDTVTIVVRG				binds
